Consider one molecule from publication PMC2880831.

For the data set, the target named is EGR1 (UniProt P18146 1-543). Briefly: EMSA.
Chain of EGR1 (P18146 whole entry): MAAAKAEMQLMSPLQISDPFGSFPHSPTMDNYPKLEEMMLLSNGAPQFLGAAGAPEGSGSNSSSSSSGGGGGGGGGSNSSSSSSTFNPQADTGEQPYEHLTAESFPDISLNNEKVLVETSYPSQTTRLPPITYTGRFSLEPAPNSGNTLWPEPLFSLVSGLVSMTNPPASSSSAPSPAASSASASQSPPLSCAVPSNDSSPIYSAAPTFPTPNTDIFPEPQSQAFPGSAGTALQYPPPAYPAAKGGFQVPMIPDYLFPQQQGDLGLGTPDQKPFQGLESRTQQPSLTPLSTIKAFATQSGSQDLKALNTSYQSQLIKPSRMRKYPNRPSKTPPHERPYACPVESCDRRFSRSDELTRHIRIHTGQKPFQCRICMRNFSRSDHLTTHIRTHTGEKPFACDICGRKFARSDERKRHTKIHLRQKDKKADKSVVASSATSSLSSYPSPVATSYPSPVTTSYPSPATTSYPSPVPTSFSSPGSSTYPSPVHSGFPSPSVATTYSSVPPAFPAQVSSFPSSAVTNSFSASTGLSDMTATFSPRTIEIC

B1: FAP promoter WT -225~-205 (dsDNA)
DNA 1: CAAGAACGCCCCCAAAATCT
DNA 2: AGATTTTGGGGGCGTTCTTG
For the molecule B1, the binding result was “binds”.
